# Measured values from the RNAGym collection of RNA variant scans (doi:10.1073/pnas.2313332121).
# B1: TPR t1 (parent)
# chain: GACCAAUCUGCCCUCAGAGCUCGAGAACAUCUUCGGAUGCAGAGGAGGCAGGCUUCGGUGGCGCGAUAGCGCCAACGUCCUCAACCUCCAAUGCAUCCCACCACAUGAUGAUGCCUGAAGAGCCUUGGUUUUUUG
# Variants of: B1
# Assay: polymerase ribozyme fitness, log enrichment relative to wild type (log ratio); higher = more active; in vitro selection for triplet polymerase activity
# How it was run: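 Each subunit of a heterodimeric triplet polymerase ribozyme was represented by a PCR-built, transcribed mutant library that underwent triplicate single-round in vitro selection with frozen incubation at −7 °C. Extended constructs were recovered by gel excision, streptavidin-bead capture and RT-PCR, and Illumina sequencing of input and output libraries kept genotypes with ≥10 input reads and ≥1 read per output. Fitness is the logarithm of genotype enrichment relative to wild-type enrichment, from inverse-variance-weighted replicate averages, with a logarithm base of 2.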
row,Variant,polymerase ribozyme fitness (log ratio)
1,U78C G93A C101U C123U,-0.0122
2,U78C C98U U112A U130A,-3.27
3,C82G C89A,-2.23
4,C79G A84U,-2.3
5,C80U C98G,-6.73
6,U78C A95C,-1.06
7,U81A U131G,-0.926
8,C79U G117A A119U,-4
9,C80A C97G G117C,-7.22
10,C79U A91C A100U,-3.6
11,C80G U87A A90U A111C,-6.64
12,U81C G93C,-1.57
13,C82G C102A U112A G120C U125G,-4.33
14,C82G G110C,-4.38
15,C80U U96C,-0.313
16,C79G U112C G122C,-0.637
17,U81G C101A U106A,-2.9
18,U78C G128A,-1.95
19,C79G C123G U133A,0.663
20,C80G U106A G122A,-6.86
21,C80U A84U G135C,-0.488

row,Variant,polymerase ribozyme fitness (log ratio)
1,C82G C86A C94G,-3.45
2,C80G G117C,-6.43
3,C80U C88G C124U,-1.05
4,C82G C98G U109A C123G,-7.59
5,C80A G93U G120C,-4.31
6,U81C A83G,-1.15
7,U78C C80A,-1.94
8,U78C C80G,-4.13
9,C80A G120U,-2.35
10,C80A G120C,-2.2
11,C79U A84G,-0.834
12,C82A C88A G113A,-1.71
13,C80A A108G,-5.73
14,C79A G117U G120C,-3.42
15,C82G C97U,-1.16
16,C79A G120C,0.837
17,U78C G135U,-1.27
18,C79A G128C,-3.31
19,U78C C79U U106C,0.0469
20,C79G C114G,-5.17
21,C82A U116C C123A,-2.84

row,Variant,polymerase ribozyme fitness (log ratio)
1,C79G C114A C115G,-6.59
2,C80A G93A,-3.95
3,U78C C85U U112A,0.233
4,U78G A90C,-1.6
5,C80A G127U,-3.48
6,C82A,-0.485
7,C82G,-0.684
8,U78C C124U,1.72
9,C82A A105U,-2.27
10,C80G U112A,-5.14
11,C79U C80U U112A,-2.98
12,C80U A119G,0.683
13,U78G A111U,-3.77
14,C79G C85U,-2.29
15,C80U C82G C101A C124G U126A,-1.21
16,C79U C114U,-2.32
17,U81A A91C C97A A105G C123G,-8.06
18,U81A A95U C102G A103U G110C U125G,-6.02
19,C82A C85A G120U,-0.479
20,U78C U112C,2.04
21,U81C U112A U125G,-0.145

row,Variant,polymerase ribozyme fitness (log ratio)
1,C79G G127A,-2.38
2,C79G G127U,-2.87
3,C79U G117A U125G,-1.82
4,U81C C82G G113C C115G A118G,-7.41
5,U78C C102A G117C,-6.34
6,C82A U129A,-2.69
7,C82A U129C,-0.227
8,U78C C115G U133A,-1.97
9,C79U G128C,-2.48
10,C80U C123A U129C,-1.18
11,C80U U131G,-0.642
12,C79G U109A,-7.49
13,C80U C88U,-0.555
14,C82A C89A A105U U112G,-4.43
15,U78C G113C,-1.53
16,U78C G113U,-3.31
17,C82A U133A,-0.323
18,C80U G127C,-3.21
19,U78C C89U C115A,-0.146
20,C82G C86U C102U U112G,-3.94
21,C82A G93C C115U G122A,-3.46
